Assay: soluble fraction after stress (log2 fold change); higher = more stays soluble; pooled small domains, quantitative proteomics
Conditions: stress: 75 degC
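Further: 20 min heating vs room temperature control held 20 min.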

Sequence: HMGASSLVGRSARVLQAVTDSDGRIKLAGETWSARLAAGATSTVGPGEEVRVIAIHGATAIVAPV
- soluble fraction (log2): -0.581

Sequence: HMGASVGEVESVKTASEIYTAAAGKIVAVNDAVAKDPSLVNSDPYGNGWLVKLEIADLSAINA
- soluble fraction (log2): 0.0161

Sequence: HMGAVDIATARQLISEIGLPIMLKAEGGGGGRGIFAIHNEAELEDAFFKASTMAQASFGNPRLFVEKF
- soluble fraction (log2): -0.441

Sequence: HMGAVFEFIMEEEEPERIDKLLSSALPDLSRSYLQKLVKEGAVLVNKKEVKPNHKVNPGDVVEISVPEPE
- soluble fraction (log2): 0.448

Sequence: HMGAVGISQKVTSLETAVLGKNFAKDPLIDRVARLEQTVLPKQAEANASLSLPERVSKLLEKVPIAAG
- soluble fraction (log2): 0.109

Sequence: HMGAVPKNYFPAVEKGLQDSVQKGLLAGYPVVGVKAILYDGSYHPVDSSEMAFKTATIQAFKKGFMEA
- soluble fraction (log2): 0.187

Sequence: HMGAYIPSYAPVDINAATHTVVRGDTVYNISKRYHVSQEDFRAWNGMADNTLSIGQVVKVKPAGYTAPK
- soluble fraction (log2): -0.267

Sequence: HMGDAVSRAYFALADDLLKGELTETVSEVLIRTRYELTSAQLQAVLHRIAQEGWAHKKPGYGWEFSAMLT
- soluble fraction (log2): -2.01

Sequence: HMGDEHYDTISAFIKSVRGSDPDAALYWLAKMILAGEDPRFILRRLIVLSGEDIGLADPQGI
- soluble fraction (log2): -0.552

Sequence: HMGDEPGAGYKWREDVLLRVMSEHGIDESARDDFVRHAVKFDDDDNLYLKKAEIIAAAEAWESSS
- soluble fraction (log2): 0.359

Sequence: HMGDFLLQVDFPPALLEMLPEGKRQAAIGVLSHDPRPAYQRTPGRVYGLNFAGHNIRFAVSENLLTVLEV
- soluble fraction (log2): -2.16

Sequence: HMGDFLLTPHRGRSADFVIGNPPYIRLEDVPNDISDAYRAEYASMPGRADIHVGFYEKGLDL
- soluble fraction (log2): -0.117

Sequence: HMGDFVIVPDLIGKTIEEFDSELNELNLKYIISDSGNYNPDFKINSVLDQLPNANSKVKGGRKIYITLNAS
- soluble fraction (log2): -1.05

Sequence: HMGDGAWQQGEGGRWWYKYNNGTYPKDRVVTIGGKKYGFDSEGWMLSDTTKAFGGTTYSFAADGVATAQA
- soluble fraction (log2): -0.0039

Sequence: HMGDGYTYYYDDTVLALGFTKIGNDYYIFNTFSGKMYKDATMWVNDNPYGIKGGMHYFDASGKMFV
- soluble fraction (log2): 0.215

Sequence: HMGDIFTAEDAKERIDYSGVDGIMLARGIFGNPWLIRDIREYLEYGKILHPVTQLDRVNMAIEHTRKT
- soluble fraction (log2): 0.169

Sequence: HMGDIMLLFKENGKVYFLVGNQYTYVKNPTELSAIKTMMKQAGYDTHEHTNTTQVAYIKRLATE
- soluble fraction (log2): -2.35

Sequence: HMGDKVLIQTAQRLKKDLPFASIVSRFGGDEFLIFLPGISSTERVETIVKKTVFLFIAISTTLF
- soluble fraction (log2): -0.28

Sequence: HMGDLKSLIQATMDDAGISIKPDAMDYLISHLGSDRLTTRAELDKLILYAGADDKLDLDSVVELVG
- soluble fraction (log2): 0.00366

Sequence: HMGDLLTVDRVAATSGLGVDTIRYYQRLGLLDPPVRHGRRALYSTAHLDRLVEIRQLADEGFSLAQIATL
- soluble fraction (log2): -1.05

Sequence: HMGDLVFDFVHGVHKAAEVEKELVMQALRFTHGNVSRAARLIGMQRSSLRYRIERYRLDAFVMEVAN
- soluble fraction (log2): 0.276

Sequence: HMGDPSSERNIQKSIFILIGEKALSVQDISRSLGMPNDIIDKALISGVERNLWLSSDKGEYYL
- soluble fraction (log2): -1.2

Sequence: HMGDRRSVFEQSVLDAIKSLVKQGELATTKAISDHIGTNYQGNVSRAITALLADNKIKKLPKEGVLQPYEA
- soluble fraction (log2): -0.0172

Sequence: HMGDSFLDHKKELQSMILSRLDLSREVPDEEIKDIIDELIIAQSKKLFLSLNDRGKLRQELFYSIRK
- soluble fraction (log2): -1.23

Sequence: HMGDSVLNDKLNTLAGLDEERFKWVLASLNPNNSYSTHSDKMSALMWLVSYFNDEADLKETVPPLPI
- soluble fraction (log2): -0.189

Sequence: HMGDTIFINNNFYVKHIVEFGETIDIISKIYDVSVNKILETNETSTKLYSGQSLFIPININV
- soluble fraction (log2): -3.47

Sequence: HMGDTLEIVVIYSNKQKAEEAVNNLKGKFEDLGYNFAIITVDTSKITQLAMESSIQYIEFPKSFYFSD
- soluble fraction (log2): -4.25

Sequence: HMGDVATVKLDNNGLLNMRKSDARGADIVARIPNGTVVQVLNRETEWTQVRYDGKEGYVMSSFLQFAE
- soluble fraction (log2): -0.047

Sequence: HMGDVPESLVEKAGHSINAKIISAWGMTETGASTMTRPQDDPERAIYSDGVVLPLMDVRVVNDAGLA
- soluble fraction (log2): -0.167

Sequence: HMGDWEKALAQFAAHRLANGSTAFLDEMYPIFERILLQAALNKTGGRKIEAAELLGWGRNTLTRKLKELGF
- soluble fraction (log2): -2.2

Sequence: HMGDYERVPEYKGKLTSDLTMEDSQKFAFRFIWQNSDEDEGKIIDQDPPAGKSVAKGSEIVLYVSNG
- soluble fraction (log2): 0.474

Sequence: HMGEAAIYRINILINNLNVRSGPGTLYPRLRRADFPGEYDIFEEKNGFGRISNTKSEWVSLNTQYVQRLT
- soluble fraction (log2): -2.8

Sequence: HMGEAIPVPDLKHKALTDAEHLVHELGLEIQVVDTGYVKSLPADYILGQSLAPGEKVKSGHIIYVTINSP
- soluble fraction (log2): -1.23

Sequence: HMGEGTAVGKALKFLAAQGKKFAPELLDMAGSLTGVEALSKLGDAIKGDPELSELDKRILLAELETDAV
- soluble fraction (log2): -0.171

Sequence: HMGEIHALIPGLVSRLFVKPGDRVENGQGLLILEAMKMENEIDSPISGVVGKIYIKAGDKVEKGELIMEIN
- soluble fraction (log2): -1.45

Reference: the domain aggregation screens of Martell et al. (2025)
